B1: BMPRII extracellular domain (ECD), wild type [human] / BMP10 growth factor (GF)-domain from Pro:BMP10 made in HEK EBNA cells [human] (parent)
chain 1: SQNQERLCAFKDPYQQDLGIGESRISHENGTILCSKGSTCYGLWEKSKGDINLVKQGCWSHIGDPQECHYEECVVTTTPPSIQNGTYRFCCCSTDLCNVNFTENFPPPDTTPLSPPHSFNRDET
chain 2: NAKGNYCKRTPLYIDFKEIGWDSWIIAPPGYEAYECRGVCNYPLAEHLTPTKHAIIQALVHLKNSQKASKACCVPTKLEPISILYLDKGVVTYKFKYEGMAVSECGCR

Test [1] covers variants of B1. The experiment in a line: ELISA (prodomain displacement). The note with it: with BMP10 growth factor (GF)-domain from Pro:BMP10 made in HEK EBNA cells [human]; BMPRII ECD at 125x excess over Pro:BMP10; lower reading = more prodomain displaced; parent: 0.42; read off a plot.
Variants of B1 are the subject of test [2]. The experiment in a line: native PAGE prodomain displacement (densitometry). The note with it: with BMP10 growth factor (GF)-domain from Pro:BMP10 made in HEK EBNA cells [human], lower ratio = more prodomain displaced, read off a plot.
The variants in test [3] derive from B1. As to the kind of experiment: SPR (Biacore). The conditions noted are these: with Recombinant human BMP10 growth factor (GF)-domain (R&D Systems) [human], BMP10 immobilised on a CM5 Biacore chip.
Where [4] appears, read: BMPRII ECD at 2-fold excess (2x) over Pro:BMP10, parent: 0.59.
[5] abbreviates: BMPRII ECD at 5-fold excess (5x) over Pro:BMP10, parent: 0.46.

In the case of chain 1 G57E, the screen value in test [1] amounted to 1; in test [2] (setting [4]) it was 0.93; in test [2] (setting [5]), 0.88.
In the same order, the values of chain 1 E72K are 0.42, 0.49 and 0.19.
With chain 1 G42D, the screen value in test [1] worked out at 0.95; in test [2] (setting [4]), 0.82; in test [2] (setting [5]) it was 0.72.
In the same order, the values of chain 1 S81P are 0.3, 0.7 and 0.66.
For the variant chain 1 N100S, the Kd in test [3] (parent: 1.19e+03 nM) came out at 1320 nM. Moreover, the koff in test [3] (parent: 0.161) was determined as 0.14 s⁻¹. Further, in test [3] (parent: 1.35e+05), the kon was 106000 M⁻¹ s⁻¹. Also, the results for the screen value in test [1], in test [2] (setting [4]) and in test [2] (setting [5]) were 0.52, 0.64 and 0.39, respectively.
Consider chain 1 Y41C, for which the screen value was determined as 1 in test [1], 0.93 in test [2] (setting [4]) and 0.88 in test [2] (setting [5]).
On the same counts, the results for chain 1 Q66H are 0.47, 0.77 and 0.55.
In the same order, the values of chain 1 G63W are 0.67, 0.9 and 0.77.
On the same counts, the results for chain 1 G63A are 0.57, 0.78 and 0.6.
Turning to chain 1 G63E, the screen value in test [1] came out at 0.75; in test [2] (setting [4]), 0.99; in test [2] (setting [5]), 0.93.

A word on the Kd: it is the equilibrium constant for the complex coming apart. The term koff denotes the rate constant with which the complex falls apart. As usually defined, the kon is the rate constant with which the complex forms.

For the origin of these results see article PMC9064986.
